Test results published in patent publication US20220251236A1 (Boehringer Ingelheim, published 2022).

T1: EGF4+5
T1 construct: also called Hu DLL3 EGF4+5 on HEK293 cells
T1 membrane-anchored DLL3 subdomain construct: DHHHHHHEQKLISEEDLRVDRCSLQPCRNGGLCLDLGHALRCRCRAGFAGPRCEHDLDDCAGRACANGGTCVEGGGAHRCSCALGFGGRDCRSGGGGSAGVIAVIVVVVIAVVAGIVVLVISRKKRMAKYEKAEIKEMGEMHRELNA

T2: EGF2+3
T2 construct: also called Hu DLL3 EGF2+3 on HEK293 cells
T2 membrane-anchored DLL3 subdomain construct: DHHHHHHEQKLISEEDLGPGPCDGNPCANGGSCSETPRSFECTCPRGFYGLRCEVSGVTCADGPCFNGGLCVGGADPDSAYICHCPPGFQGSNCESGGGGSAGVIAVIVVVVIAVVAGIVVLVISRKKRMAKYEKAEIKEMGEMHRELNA

T3: EGF5+6
T3 construct: also called Hu DLL3 EGF5+6 on HEK293 cells
T3 membrane-anchored DLL3 subdomain construct: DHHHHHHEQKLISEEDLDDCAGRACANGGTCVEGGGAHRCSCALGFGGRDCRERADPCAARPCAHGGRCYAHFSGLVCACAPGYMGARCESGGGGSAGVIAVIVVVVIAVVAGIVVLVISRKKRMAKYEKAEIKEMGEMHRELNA

T4: EGF1+2
T4 construct: also called Hu DLL3 EGF1+2 on HEK293 cells
T4 membrane-anchored DLL3 subdomain construct: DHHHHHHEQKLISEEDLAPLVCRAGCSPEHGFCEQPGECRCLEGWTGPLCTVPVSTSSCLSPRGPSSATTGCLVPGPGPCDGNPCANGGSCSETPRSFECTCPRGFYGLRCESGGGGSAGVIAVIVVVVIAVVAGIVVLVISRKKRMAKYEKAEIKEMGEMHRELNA

T5: EGF6+MEMBRANE PROXIMAL PEPTIDE
T5 construct: also called Hu DLL3 EGF6+membrane proximal peptide on HEK293 cells
T5 membrane-anchored DLL3 subdomain construct: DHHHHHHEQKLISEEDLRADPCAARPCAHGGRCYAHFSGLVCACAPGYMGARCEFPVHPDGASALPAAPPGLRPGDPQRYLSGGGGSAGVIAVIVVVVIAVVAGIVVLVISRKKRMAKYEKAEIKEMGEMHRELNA

T6: Human DLL3-His (human, UniProt Q9NYJ7 27-492)
T6 construct: also called huDLL3-His; hu DLL3
T6 sequence: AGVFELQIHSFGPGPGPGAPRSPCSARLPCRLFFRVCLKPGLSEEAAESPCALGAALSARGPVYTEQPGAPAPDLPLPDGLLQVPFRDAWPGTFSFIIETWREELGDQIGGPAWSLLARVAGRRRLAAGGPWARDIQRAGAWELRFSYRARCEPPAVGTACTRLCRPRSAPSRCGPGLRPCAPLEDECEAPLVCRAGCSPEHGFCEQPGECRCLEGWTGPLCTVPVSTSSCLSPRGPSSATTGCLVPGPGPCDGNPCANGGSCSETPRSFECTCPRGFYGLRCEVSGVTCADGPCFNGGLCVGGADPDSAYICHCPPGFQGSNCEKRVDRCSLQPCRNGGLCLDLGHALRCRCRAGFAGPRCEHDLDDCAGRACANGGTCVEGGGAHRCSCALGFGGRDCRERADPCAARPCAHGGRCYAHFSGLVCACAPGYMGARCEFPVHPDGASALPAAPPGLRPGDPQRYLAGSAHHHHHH

T7: EGF3+4
T7 construct: also called Hu DLL3 EGF3+4 on HEK293 cells
T7 membrane-anchored DLL3 subdomain construct: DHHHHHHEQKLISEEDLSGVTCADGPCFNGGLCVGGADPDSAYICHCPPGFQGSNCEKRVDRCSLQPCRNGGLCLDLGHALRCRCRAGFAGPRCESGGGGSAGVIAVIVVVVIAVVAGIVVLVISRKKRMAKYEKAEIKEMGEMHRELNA

B1: DLL3#8/CD3#1 (bispecific antibody, human IgG1, kappa, lambda, L234A L235A)
chain 1: not shown
chain 2: EAVVTQEPSLTVSPGGTVTLTCRSSTGAVTTSNYANWVQEKPGQLPRGLIGGTNKRAPWVPARFSGSLLGGKAALTLSGAQPEDEAEYFCALWYSNLWVFGGGTKLTVLGQPKAAPSVTLFPPSSEELQANKATLVCLISDFYPGAVKVAWKADGSPVNTGVETTTPSKQSNNKYAASSYLSLTPEQWKSHRSYSCQVTHEGSTVEKTVAPAECSGGGGSEGKSSGSGSESKSTEGKSSGSGSESKSTGGGGSEVQLVESGGGLVQPGGSLKLSCAASGFTFNTYAMNWVRQAPGKGLEWVARIRSKYNNYATYYADSVKDRFTISRDDSKNTAYLQMNNLKTEDTAVYYCVRHGNFGNSYVSWFAYWGQGTLVTVSAASTKGPSVFPLAPSSKSTSGGTAALGCLVKDYFPEPVTVSWNSGALTSGVHTFPAVLQSSGLYSLSSVVTVPSSSLGTQTYICNVNHKPSNTKVDKRVEPKSCDKTHTCPPCPAPEAAGGPSVFLFPPKPKDTLMISRTPEVTCVVVDVSHEDPEVKFNWYVDGVEVHNAKTKPREEQYNSTYRVVSVLTVLHQDWLNGKEYKCKVSNKALPAPIEKTISKAKGQPREPQVYTLPPSREEMTKNQVSLSCAVKGFYPSDIAVEWESNGQPENNYKTTPPVLDSDGSFFLVSKLTVDKSRWQQGNVFSCSVMHEALHNRFTQKSLSLSPG
notes: Heterodimer of one DLL3 chain and one CD3 chain (scFab-Fc, knob-in-hole)
B2: DLL3#10/CD3#1 (bispecific antibody, human IgG1, kappa, lambda, L234A L235A)
chain 1: EIVLTQSPGTLSLSPGERATLSCRASQSLNSIFLAWYQQKPGQAPWLLIYGASSRATGIPDRFSGSGSGTDFTLTISRLEPEDFAVYFCQQYGGSMNTFGQGTKLEIKRTVAAPSVFIFPPSDEQLKSGTASVVCLLNNFYPREAKVQWKVDNALQSGNSQESVTEQDSKDSTYSLSSTLTLSKADYEKHKVYACEVTHQGLSSPVTKSFNRGECGGGGSEGKSSGSGSESKSTEGKSSGSGSESKSTGGGGSQVQLVQSGAEVKKPGASVKVSCKASGYTFTGYYMHWVRLAPGQGLEWMGWINPNSGGTIFAQRFQGRVTMTRDTSISTVYMDLNRLRSDDTAVYYCARDFGDTVGNAFDIWGQGTMVTVSSASTKGPSVFPLAPSSKSTSGGTAALGCLVKDYFPEPVTVSWNSGALTSGVHTFPAVLQSSGLYSLSSVVTVPSSSLGTQTYICNVNHKPSNTKVDKRVEPKSCDKTHTCPPCPAPEAAGGPSVFLFPPKPKDTLMISRTPEVTCVVVDVSHEDPEVKFNWYVDGVEVHNAKTKPREEQYNSTYRVVSVLTVLHQDWLNGKEYKCKVSNKALPAPIEKTISKAKGQPREPQVYTLPPSREEMTKNQVSLWCLVKGFYPSDIAVEWESNGQPENNYKTTPPVLDSDGSFFLYSKLTVDKSRWQQGNVFSCSVMHEALHNHYTQKSLSLSPG
chain 2: B1 chain 2
notes: as for B1
B3: DLL3#12/CD3#1 (bispecific antibody, human IgG1, kappa, lambda, L234A L235A)
chain 1: QVVLTQSPAIMSASPGEKVTITCSASSSVTYIHWFQQNPGTSPKLWIYRTSYLASGVPARFSGSGSGTSYSLTISRMEAEDAATYYCQQRSSYPRTFGGGTKLEIKRTVAAPSVFIFPPSDEQLKSGTASVVCLLNNFYPREAKVQWKVDNALQSGNSQESVTEQDSKDSTYSLSSTLTLSKADYEKHKVYACEVTHQGLSSPVTKSFNRGECGGGGSEGKSSGSGSESKSTEGKSSGSGSESKSTGGGGSQVQLQQPGAEFVQPGSSVKMSCKASGYAFSDYWITWVKQRPGQGLEWIGDIYPGSGSTKSSEKFKNRATLTADTSSSTAYIQFSSLTPEDSAVYYCVSLYYYGSYYLDTWGQGTTLTVSSASTKGPSVFPLAPSSKSTSGGTAALGCLVKDYFPEPVTVSWNSGALTSGVHTFPAVLQSSGLYSLSSVVTVPSSSLGTQTYICNVNHKPSNTKVDKRVEPKSCDKTHTCPPCPAPEAAGGPSVFLFPPKPKDTLMISRTPEVTCVVVDVSHEDPEVKFNWYVDGVEVHNAKTKPREEQYNSTYRVVSVLTVLHQDWLNGKEYKCKVSNKALPAPIEKTISKAKGQPREPQVYTLPPSREEMTKNQVSLWCLVKGFYPSDIAVEWESNGQPENNYKTTPPVLDSDGSFFLYSKLTVDKSRWQQGNVFSCSVMHEALHNHYTQKSLSLSPG
chain 2: B1 chain 2
notes: as for B1

Assays:
EGF4+5 [1] = biological target: T1, EGF4+5; assay: flow cytometry on HEK293 cells expressing the DLL3 subdomain construct, 1.6 nM binder, PE anti-human secondary, control: secondary antibody only
Description: (§1) DLL3/CD3 binding proteins were produced by transient transfection of CHO-E cells with the pTT5 vectors carrying the chain-encoding genes, as described in Example 2. […] Bound molecules were detected with PE-conjugated anti-human secondary antibody (Sigma-Aldrich, #P8047). As negative control, cells were incubated with secondary antibody only.
(§2) The samples were measured by flow-cytometry. […] The sequences of the epitope domains are listed in Example 5, Table 3.

Human CD3 E+G HuFc-6xHis = biological target: T8, Human CD3 E+G HuFc-6xHis (human); assay: SPR (ProteOn XPR36), HuCD3E_HuCD3G-Fc amine-coupled, bispecific as analyte, Example 4B
T8 construct: also called hu CD3εγ-Fc
T8 sequence (chain, as listed by the source limits assumed): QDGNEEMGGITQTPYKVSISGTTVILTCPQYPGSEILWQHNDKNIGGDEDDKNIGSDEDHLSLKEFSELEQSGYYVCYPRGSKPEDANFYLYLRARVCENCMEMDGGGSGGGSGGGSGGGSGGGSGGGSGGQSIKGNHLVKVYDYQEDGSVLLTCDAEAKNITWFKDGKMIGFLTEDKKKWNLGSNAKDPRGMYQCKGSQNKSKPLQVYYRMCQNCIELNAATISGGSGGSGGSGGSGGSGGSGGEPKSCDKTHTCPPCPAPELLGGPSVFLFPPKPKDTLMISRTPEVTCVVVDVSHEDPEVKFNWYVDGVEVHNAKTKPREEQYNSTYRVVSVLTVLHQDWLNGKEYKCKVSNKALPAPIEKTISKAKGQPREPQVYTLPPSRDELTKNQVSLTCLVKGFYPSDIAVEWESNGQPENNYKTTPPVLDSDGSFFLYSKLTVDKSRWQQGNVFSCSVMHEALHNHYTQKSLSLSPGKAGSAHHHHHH
Description: (§3) The binding affinity of purified DLL3/CD3 bispecific constructs for recombinant human DLL3-ECD and Fc-fusion protein of human CD3 εγ subunits was determined by Surface Plasmon Resonance (SPR), using a ProteOn XPR36 instrument (Bio-Rad).
For binding kinetic determination to CD3, HuCD3E_HuCD3G-Fc (dissolved in pH 4.5 acetate) was immobilized directly onto the sensor surface through amine coupling for 360 sec at a flowrate of 30 μl/min vertically. The baseline was stabilized by injecting PBS-T-EDTA for 60 sec at a flowrate of 30 μl/min horizontally. The analytes (all anti-DLL3/CD3 molecules) were injected horizontally over the captured antibody for 600 sec at a flowrate of 30 μl/min and a dissociation for 1800 sec.

[2] = biological target: T9, trypsin inhibitor from glycine max soybean (Glycine max (soybean)); assay: SPR (Biacore T200), trypsin inhibitor on CM5 chip, sample at 1 µM
T9 construct: also called Tryp
T9 sequence (P01070 25-205): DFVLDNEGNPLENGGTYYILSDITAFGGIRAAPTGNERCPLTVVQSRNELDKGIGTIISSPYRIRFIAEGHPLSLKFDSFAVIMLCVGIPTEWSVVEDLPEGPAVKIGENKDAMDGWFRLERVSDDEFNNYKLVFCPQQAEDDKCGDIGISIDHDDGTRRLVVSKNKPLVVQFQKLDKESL
Excerpt: To prepare the surface for the non-specific binding experiment, chicken egg white lysozyme and trypsin inhibitor from glycine max soybean were coupled manually to a series S CM5 chip with the surface density of 3000-5000 RU using the amine coupling kit according to the manufacture instructions.

EGF2+3 = biological target: T2, EGF2+3; assay: flow cytometry on HEK293 cells expressing the DLL3 subdomain construct, PE anti-human secondary, control: secondary antibody only
Description: as §1, §2

EGF5+6 = biological target: T3, EGF5+6; assay: as above
Description: as §1, §2

EGF1+2 [3] = biological target: T4, EGF1+2; assay: as above
Description: as §1, §2

[4] = biological target: T5, EGF6+MEMBRANE PROXIMAL PEPTIDE; assay: as above
Description: as §1, §2

Human DLL3-His = biological target: T6, Human DLL3-His; assay: SPR (ProteOn XPR36), bispecific captured on protein A/G, hu DLL3 as analyte, Example 4B
Description: as §3
For binding kinetic determination to DLL3, anti-DLL3/CD3 molecules were captured individually on the protein A/G surface vertically for 200 sec at a flowrate of 30 μl/min. The baseline was stabilized by injecting PBS-T-EDTA for 60 sec at a flowrate of 30 μl/min horizontally. The analyte (hu DLL3) was injected horizontally over the captured antibody for 300 sec at a flowrate of 30 μl/min and a dissociation for 1800 sec.

EGF1+2 [5] = biological target: T4, EGF1+2; assay: flow cytometry on HEK293 cells expressing the DLL3 subdomain construct, 1.6 nM binder, PE anti-human secondary, control: secondary antibody only
Description: as §1, §2

EGF3+4 = biological target: T7, EGF3+4; assay: flow cytometry on HEK293 cells expressing the DLL3 subdomain construct, PE anti-human secondary, control: secondary antibody only
Description: as §1, §2

EGF4+5 [6] = biological target: T1, EGF4+5; assay: as above
Description: as §1, §2

| Binder | binding result (EGF4+5 [1]) | Kd (Human CD3 E+G HuFc-6xHis) | Non-specific binding (RU) [2] | binding result (EGF2+3) | binding result (EGF5+6) | binding result (EGF1+2 [3]) | binding result [4] | Kd (Human DLL3-His) | binding result (EGF1+2 [5]) | binding result (EGF3+4) | binding result (EGF4+5 [6]) |
| --- | --- | --- | --- | --- | --- | --- | --- | --- | --- | --- | --- |
| B1 | binds | 2 nM | 18 RU | no binding (tested: 1.6 nM) | no binding (tested: 1.6 nM) | no binding (tested: 1.6 nM) | no binding (tested: 1.6 nM) | – | – | – | – |
| B2 | – | – | 12 RU | no binding (tested: 1.6 nM) | no binding (tested: 1.6 nM) | – | no binding (tested: 1.6 nM) | 0.141 nM | binds | no binding (tested: 1.6 nM) | no binding (tested: 1.6 nM) |
| B3 | – | 2 nM | 9 RU | no binding (tested: 1.6 nM) | no binding (tested: 1.6 nM) | – | no binding (tested: 1.6 nM) | < 0.02 nM | binds | no binding (tested: 1.6 nM) | no binding (tested: 1.6 nM) |
